Consider one molecule from patent US20160040133A1 (published 2016).

The target in the experiment is T1, B2 C-9ASM (pAD-GAL4 fusion, yeast two-hybrid prey) (flock house virus).
T1 construct: Carries 9 alanine substitutions at the C-terminus; also called FHV B2 c-9ASM
Briefly: yeast two-hybrid (Table 1: colony -, β-GAL White).

B1: PAZ domain of Arabidopsis Dicer-like protein 1 (DCL1) (pBD-GAL4 fusion, yeast two-hybrid bait) (other)
chain: MKLLSSIEQACDICRLKKLKCSKEKPKCAKCLKNNWECRYSPKTKRSPLTRAHLTEVESRLERLEQLFLLIFPREDLDMILKMDSLQDIKALLTGLFVQDNVNKDAVTDRLASVETDMPLTLRQHRISATSSSEESSNKGQRQLTVSEVEEDLSKGKLMMADGCMVAEDLIGKIVTAAHSGKRFYVDSICYDMSAETSFPRKEGYLGPLEYNTYADYYKQKYGVDLNCKQQPLIKGRGVSYCKNLLSPRFEQSGESETVLDKTYYVFLPPELCVVHP
notes: domain: BD;domain: PAZ domain; PAZ domain amplified by PCR and inserted into SalI and PstI digested pBD-GAL4 cam; also called DCL1-PAZ; PAZ domain of DCL1
For B1, the binding result was “no binding”.
